According to PMC6736635:
Where two headings read alike, the source gives them in different places.

Experiments:
Assay in all cases: fluorescence anisotropy
PRC2-AEBP2 mt5 = PRC2-AEBP2 mt5 (Homo sapiens, UniProt Q15910;Q15022;O75530;Q09028;Q6ZN18 1-746;1-739;1-441;1-425;1-517, Y133A;T144A;F145A;Y153A;Y308A)
PRC2-AEBP2 mt4 = PRC2-AEBP2 mt4 (Homo sapiens, UniProt Q15910;Q15022;O75530;Q09028;Q6ZN18 1-746;1-739;1-441;1-425;1-517, K656A)
PRC2-AEBP2 mt1 = PRC2-AEBP2 mt1 (Homo sapiens, UniProt Q15910;Q15022;O75530;Q09028;Q6ZN18 1-746;1-739;1-441;1-425;1-517, R27A;R31A;F165A;R355A)
PRC2-MTF2-EPOP = PRC2-MTF2-EPOP (Homo sapiens, UniProt Q15910;Q15022;O75530;Q09028;Q9Y483;A6NHQ4 1-746;1-739;1-441;1-425;1-593;1-379)
PRC2-AEBP2 [1] = target: T1, PRC2-AEBP2 (Homo sapiens, UniProt Q15910;Q15022;O75530;Q09028;Q6ZN18 1-746;1-739;1-441;1-425;1-517)
PRC2-PHF19 = PRC2-PHF19 (Homo sapiens, UniProt Q15910;Q15022;O75530;Q09028;Q5T6S3 1-746;1-739;1-441;1-425;1-580)
PRC2-MTF2 = PRC2-MTF2 (Homo sapiens, UniProt Q15910;Q15022;O75530;Q09028;Q9Y483 1-746;1-739;1-441;1-425;1-593)
[2] = target: PRC2 core (EZH2-EED-SUZ12-RBBP4) (Homo sapiens, UniProt Q15910;Q15022;O75530;Q09028 1-746;1-739;1-441;1-425)
PRC2-AEBP2 mt2 = PRC2-AEBP2 mt2 (Homo sapiens, UniProt Q15910;Q15022;O75530;Q09028;Q6ZN18 1-746;1-739;1-441;1-425;1-517, H129A;K156A;H158A;G159A;R161A;R306A)
PRC2-AEBP2 mt3 = PRC2-AEBP2 mt3 (Homo sapiens, UniProt Q15910;Q15022;O75530;Q09028;Q6ZN18 1-746;1-739;1-441;1-425;1-517, R16A;K17A;R18A;K20A)
PRC2-AEBP2 [3] = target: T1, PRC2-AEBP2; remark: listed apart in the source
PRC2-AEBP2 [4] = target: T1, PRC2-AEBP2; remark: listed apart in the source

PRC2 core (EZH2-EED-SUZ12-RBBP4), sequence (Q15910 whole entry, chain 1 of 4): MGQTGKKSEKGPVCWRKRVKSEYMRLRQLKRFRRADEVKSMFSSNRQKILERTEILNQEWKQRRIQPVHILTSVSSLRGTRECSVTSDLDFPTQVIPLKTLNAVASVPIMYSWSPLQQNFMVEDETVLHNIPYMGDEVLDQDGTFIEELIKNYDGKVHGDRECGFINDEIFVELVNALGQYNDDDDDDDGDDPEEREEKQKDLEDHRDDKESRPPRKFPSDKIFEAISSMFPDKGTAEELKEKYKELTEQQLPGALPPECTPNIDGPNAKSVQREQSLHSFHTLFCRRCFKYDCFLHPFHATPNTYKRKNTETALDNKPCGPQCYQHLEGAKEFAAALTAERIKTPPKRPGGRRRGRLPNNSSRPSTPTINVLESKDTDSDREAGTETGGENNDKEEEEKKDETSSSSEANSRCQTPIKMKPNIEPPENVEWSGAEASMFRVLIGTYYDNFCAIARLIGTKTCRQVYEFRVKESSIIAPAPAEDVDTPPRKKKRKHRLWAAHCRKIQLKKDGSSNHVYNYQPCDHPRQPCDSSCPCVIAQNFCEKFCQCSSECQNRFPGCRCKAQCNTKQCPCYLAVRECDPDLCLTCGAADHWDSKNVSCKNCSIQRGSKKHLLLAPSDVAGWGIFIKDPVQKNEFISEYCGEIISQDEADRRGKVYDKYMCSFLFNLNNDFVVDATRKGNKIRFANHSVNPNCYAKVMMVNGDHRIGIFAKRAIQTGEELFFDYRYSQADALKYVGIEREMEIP
PRC2 core (EZH2-EED-SUZ12-RBBP4), sequence (Q15022 whole entry, chain 2 of 4): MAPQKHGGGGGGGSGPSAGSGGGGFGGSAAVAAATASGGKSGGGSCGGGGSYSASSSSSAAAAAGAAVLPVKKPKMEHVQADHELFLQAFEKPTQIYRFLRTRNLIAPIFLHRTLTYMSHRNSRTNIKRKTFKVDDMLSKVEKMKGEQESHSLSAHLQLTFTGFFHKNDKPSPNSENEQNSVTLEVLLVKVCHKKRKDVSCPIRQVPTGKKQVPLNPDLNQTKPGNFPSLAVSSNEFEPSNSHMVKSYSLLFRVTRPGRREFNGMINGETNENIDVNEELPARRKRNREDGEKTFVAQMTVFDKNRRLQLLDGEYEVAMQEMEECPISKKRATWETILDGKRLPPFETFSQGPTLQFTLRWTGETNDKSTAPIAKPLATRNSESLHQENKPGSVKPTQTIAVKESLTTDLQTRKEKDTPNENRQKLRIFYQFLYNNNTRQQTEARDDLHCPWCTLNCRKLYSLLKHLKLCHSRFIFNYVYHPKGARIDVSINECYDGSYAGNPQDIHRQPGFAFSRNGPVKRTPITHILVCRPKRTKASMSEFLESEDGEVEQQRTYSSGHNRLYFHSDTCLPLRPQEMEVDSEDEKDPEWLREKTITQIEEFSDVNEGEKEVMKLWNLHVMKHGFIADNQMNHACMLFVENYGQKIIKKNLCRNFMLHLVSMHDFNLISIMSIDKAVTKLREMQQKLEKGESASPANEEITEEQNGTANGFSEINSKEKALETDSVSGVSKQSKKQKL
PRC2 core (EZH2-EED-SUZ12-RBBP4), sequence (O75530 whole entry, chain 3 of 4): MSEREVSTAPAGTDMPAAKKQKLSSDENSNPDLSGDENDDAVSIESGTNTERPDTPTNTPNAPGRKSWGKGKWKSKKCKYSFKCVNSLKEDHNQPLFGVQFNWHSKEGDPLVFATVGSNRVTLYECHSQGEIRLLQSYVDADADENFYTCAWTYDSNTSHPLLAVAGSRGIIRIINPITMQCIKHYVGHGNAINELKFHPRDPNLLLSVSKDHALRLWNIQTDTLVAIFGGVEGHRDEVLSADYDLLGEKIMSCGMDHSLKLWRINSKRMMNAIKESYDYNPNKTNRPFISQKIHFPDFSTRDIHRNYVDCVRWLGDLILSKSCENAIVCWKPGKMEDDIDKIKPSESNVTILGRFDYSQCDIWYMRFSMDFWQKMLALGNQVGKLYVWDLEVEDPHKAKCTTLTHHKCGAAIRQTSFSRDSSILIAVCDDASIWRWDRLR
PRC2 core (EZH2-EED-SUZ12-RBBP4), sequence (Q09028 whole entry, chain 4 of 4): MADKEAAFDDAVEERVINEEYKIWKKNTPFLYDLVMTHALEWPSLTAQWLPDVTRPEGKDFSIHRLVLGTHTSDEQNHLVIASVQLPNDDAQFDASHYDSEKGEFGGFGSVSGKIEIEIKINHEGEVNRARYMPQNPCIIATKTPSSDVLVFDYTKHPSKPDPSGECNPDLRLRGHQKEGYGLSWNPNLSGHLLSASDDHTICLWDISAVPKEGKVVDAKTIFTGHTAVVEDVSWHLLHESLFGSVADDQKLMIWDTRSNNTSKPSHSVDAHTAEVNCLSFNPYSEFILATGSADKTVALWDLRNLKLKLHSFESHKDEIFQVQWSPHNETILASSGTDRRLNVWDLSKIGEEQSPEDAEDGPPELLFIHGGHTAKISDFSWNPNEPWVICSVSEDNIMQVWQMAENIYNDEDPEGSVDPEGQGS

UUAGGGUUAGGGUUAGGGUUAGGG (structured_RNA) [G4 24 RNA]
Kd (PRC2-AEBP2 mt5): 93.7 ± 6.3 nM | Kd (PRC2-AEBP2 mt4): 102 ± 4 nM | Kd (PRC2-AEBP2 mt1): 173 ± 7 nM | Kd (PRC2-MTF2-EPOP): 40.9 ± 3.9 nM | Kd (PRC2-AEBP2 [1]): 54.6 ± 3.8 nM | Kd (PRC2-PHF19): 34 ± 1.8 nM | Kd (PRC2-MTF2): 82.4 ± 9.8 nM | Kd [2]: 129 ± 6 nM | Kd (PRC2-AEBP2 mt2): 141 ± 8 nM | Kd (PRC2-AEBP2 mt3): 124 ± 7 nM | Kd (PRC2-AEBP2 [3]): 19.2 ± 2.7 nM | Kd (PRC2-AEBP2 [4]): 60.5 ± 2.2 nM
